Results reported in article PMC3707205.

Molecular target: NHR2-mH (TAT- and NLS-free NHR2 protein)
Assay: cross-linking; 20 μM protein in PBS, 0.01% glutaraldehyde, room temperature, various times; SDS-PAGE, coomassie staining

## NHR2-mH (TAT- and NLS-free NHR2 protein) (domain or fragment)
  stoichiometry N: 4
